Data from the supplement of paper PMC10126150.
± gives the standard deviation of the averaged measurements.

Each sequence was assayed on ATP (assay: switch fluorescence ratio, 500 uM ATP over buffer (Cy3 cluster intensity, sum of 5 cycles each) (fold (ratio)); higher = stronger signal-on switching upon ATP binding; sequences stand for … in TCGTCGGCAGCGTCAGATGTGTATAAGAGACAGTTTTTTTTTTTTTTTTTTTTTTTTT…TC). Conditions: aptamer strand: ATP DNA aptamer (quencher-CACCTGGGGGAGTATTGCGGAGGAAGG + anchor), 100 nM annealed; ATP concentration: 500 uM.
In short: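 Between each of five buffer/ATP cycles, the flow-cell was stripped with NaOH and re-annealed. Each cycle imaged Cy3-labelled switching-strand clusters, annealed to 100 nM quencher-labelled ATP aptamer on a modified Illumina MiSeq flow-cell, first in selection buffer and then after 15 min with 500 uM ATP at 22 °C. The fluorescence ratio is summed target-cycle over summed buffer-cycle Cy3 intensity per cluster, averaged per switch-domain sequence, with clusters outside 100-1000 RFU excluded.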
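Further: ATP exposure 15 min at 22 °C before imaging.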

Sequence | switch fluorescence ratio
GCAAATGATG | 1.01 ± 0.012
GCAACCGAGG | 1.04 ± 0.064
GCAAGAAAAA | 1.023 ± 0.0056
GCAAGACATT | 1.12 ± 0.019
GCAAGAGGGT | 1 ± 0.028
GCAAGCTGGG | 1.01 ± 0.014
GCAATCATTC | 1.18 ± 0.087
GCAATTGATG | 1.04 ± 0.017
GCAATTGGGT | 1.08 ± 0.012
GCAATTGTCG | 1.02 ± 0.046
GCACATAGCT | 1.01 ± 0.025
GCACATCTGT | 0.99 ± 0.056
GCACATGGCC | 1.03 ± 0.02
GCACCCGTAC | 1.52 ± 0.037
GCACCTATGG | 0.979 ± 0.025
GCACGCAGGA | 1.054 ± 0.006
GCACGGATGT | 1.029 ± 0.0097
GCACGGGGAA | 1.02 ± 0.028
GCACTAAACT | 1.05 ± 0.057
GCACTCGGCT | 0.991 ± 0.0047
GCACTTGGGG | 0.998 ± 0.057
GCACTTGGTC | 0.989 ± 0.011
GCAGAAAAAA | 0.988 ± 0.028
GCAGAATGCA | 0.9861 ± 0.0024
GCAGACAGCT | 1.037 ± 0.0085

Sequence | switch fluorescence ratio
GCAGACATAG | 0.983 ± 0.025
GCAGACCATT | 1.049 ± 0.0067
GCAGCAGATG | 1.077 ± 0.0072
GCAGCATCGG | 1.12 ± 0.021
GCAGCATCTG | 1.01 ± 0.024
GCAGCATGC | 1.1 ± 0.17
GCAGCCTGCT | 0.985 ± 0.032
GCAGCCTGTT | 0.994 ± 0.011
GCAGCTGGCT | 1.02 ± 0.11
GCAGGAAGGG | 0.977 ± 0.019
GCAGGAATTT | 1 ± 0.038
GCAGGAGGGA | 1.01 ± 0.039
GCAGGCAACT | 0.995 ± 0.018
GCAGGCCACA | 1.11 ± 0.065
GCAGGCGGGG | 1.02 ± 0.034
GCAGGGACAA | 1.01 ± 0.018
GCAGGGACCC | 1.12 ± 0.12
GCAGGGAGGG | 1 ± 0.041
GCAGGGGAGT | 1.17 ± 0.29
GCAGGGTGTC | 1.08 ± 0.048
GCAGGTATCA | 1.018 ± 0.007
GCAGGTGGGG | 1.1 ± 0.022
GCAGTAAAGC | 1.03 ± 0.032
GCAGTAAGTT | 0.978 ± 0.061
GCAGTAGTTA | 1.03 ± 0.013

Sequence | switch fluorescence ratio
GCAGTCATTA | 1.037 ± 0.0019
GCAGTGCCTA | 0.993 ± 0.044
GCAGTGGTAC | 2.41 ± 0.086
GCAGTTGGGT | 0.986 ± 0.028
GCATAGAAAA | 0.982 ± 0.015
GCATAGCCTG | 0.98 ± 0.034
GCATAGTCTG | 1.038 ± 0.0042
GCATAGTGGT | 1.008 ± 0.01
GCATATCGGG | 1.02 ± 0.017
GCATATTTTT | 1.026 ± 0.0032
GCATCAAAGG | 0.995 ± 0.013
GCATCCGGCG | 1.04 ± 0.081
GCATCGGGCC | 0.981 ± 0.026
GCATCTTCAC | 1.0378 ± 0.00044
GCATCTTGGG | 1 ± 0.029
GCATGACTGT | 1.01 ± 0.024
GCATGATGGA | 0.975 ± 0.022
GCATGCGGCT | 1.03 ± 0.1
GCATGGAGTA | 1.02 ± 0.029
GCATGGCGGC | 1.01 ± 0.019
GCATGGGGGG | 1.02 ± 0.042
GCATGTAGAT | 0.998 ± 0.047
GCATGTGTTC | 0.995 ± 0.038
GCATTAGTAT | 0.935 ± 0.044
GCATTCCGTT | 1.02 ± 0.011

Sequence | switch fluorescence ratio
GCATTGGGGC | 0.9893 ± 0.0098
GCATTGGGTG | 1.11 ± 0.054
GCATTGGTAC | 1.17 ± 0.071
GCATTGGTGG | 1.03 ± 0.019
GCATTGTGTG | 0.991 ± 0.037
GCATTGTTTG | 0.995 ± 0.034
GCATTTATGG | 0.949 ± 0.022
GCATTTCATG | 0.987 ± 0.021
GCATTTGCTT | 1.01 ± 0.019
GCATTTTTCT | 0.982 ± 0.031
GCATTTTTTC | 1.03 ± 0.019
GCCAATTACG | 1.11 ± 0.03
GCCAATTATT | 0.991 ± 0.031
GCCACACTAG | 1.06 ± 0.032
GCCACGGGGA | 1.0073 ± 0.00078
GCCAGAGGGG | 1.19 ± 0.34
GCCAGCAAGC | 2.25 ± 0.34
GCCAGCATGG | 1.003 ± 0.0046
GCCAGCGATC | 2.23 ± 0.81
GCCAGGGATT | 1.01 ± 0.029
GCCAGGGGGT | 1.08 ± 0.12
GCCAGGGTCA | 1.025 ± 0.0066
GCCATACGCG | 1.03 ± 0.016
GCCATGACGG | 0.988 ± 0.027
GCCCAAGGGG | 1.05 ± 0.091
